According to US20080119432, “Inhibition Of Metallo-Beta-Lactamase By Rna” (published 2008):

Legend:
[1] = molecular target: T1, metallo-beta-lactamase (beta-lactamase II, 5/B/6) (Bacillus cereus 5/B/6, UniProt P14488 SEQ:2-228); assay: inhibition; 4.3 mM cephalosporin C, 50 mM MOPS pH 7.0, no added Zn; conditions: tags: expressed in E. coli TAP56 from pRE2/bla
T1 sequence: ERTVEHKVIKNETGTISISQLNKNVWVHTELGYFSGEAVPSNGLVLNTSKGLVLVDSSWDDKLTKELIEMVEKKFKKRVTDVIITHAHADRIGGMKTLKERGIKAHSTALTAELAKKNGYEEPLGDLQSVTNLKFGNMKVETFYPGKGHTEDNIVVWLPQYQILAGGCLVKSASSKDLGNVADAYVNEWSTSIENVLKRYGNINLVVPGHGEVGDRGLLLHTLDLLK

[2] = molecular target: T1, metallo-beta-lactamase (beta-lactamase …); assay: inhibition; noncompetitive; Ki' (enzyme-substrate-inhibitor complex) 15 nM; cephalosporin C substrate, 50 mM MOPS pH 7.0, 30 C; conditions: tags: expressed in E. coli TAP56 from pRE2/bla

## UGGCUGCAGGGUCUGGCCCCCCGUUUGGUG (ssRNA) [30-mer RNA]
[1]
  IC50: 11 nM
[2]
  Ki: 2 nM
